Measurements published in PMC10309188.

Key:
Experiment in all cases: SPR
[1] = target: wildtype MR1 refolded with 6-FP, biotinylated (SPR) (UniProt Q95460)
[2] = target: MR1 E76Q E149Q refolded with 6-FP, biotinylated (SPR) (UniProt Q95460)
[3] = target: MR1 E76Q E149Q refolded with 5-FSA, biotinylated (SPR) (UniProt Q95460)
[4] = target: wildtype MR1 refolded with 5-F-SA, biotinylated (SPR) (UniProt Q95460)

Measured: Kd

AF-7 TCR
> 150 µM: all assays above
